Experimental data from the supplement of paper PMC9112550, “Optimization of the antimicrobial peptide Bac7 by deep mutational scanning” (BMC Biology, 2022).

System: Escherichia coli TOP10
Experiment: shrunken log2 fold change of peptide-encoding DNA abundance (4.5 h post-induction vs induction); higher = less antimicrobial activity (less host growth inhibition)
Conditions: time post-induction: 4.5 h; library: site-saturation at positions 5, 18, 19, 20
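Note: peptides expressed intracellularly from a pBAD plasmid library in pooled LB shake-flask culture, induced with 0.3% L-arabinose, DNA abundance read by NGS, three biological replicates, DESeq2 with apeglm shrinkage.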

**Q.** For RRIRGRPPRLPRPRPRPPDPPRP, which “shrunken log2 fold change” value is on record?
**A.** 1.57

**Q.** Which “shrunken log2 fold change” value does the source give for RRIRWRPPRLPRPRPRPTWNPRP here?
**A.** 0.306

**Q.** How did the “shrunken log2 fold change” value turn out when RRIRKRPPRLPRPRPRPEYAPRP was run?
**A.** -0.000279

**Q.** For RRIRCRPPRLPRPRPRPHDRPRP, which “shrunken log2 fold change” value is on record?
**A.** -0.0905

**Q.** How did the “shrunken log2 fold change” value turn out when RRIRWRPPRLPRPRPRPFLSPRP was run?
**A.** -0.0328

**Q.** Which “shrunken log2 fold change” value does the source give for RRIRDRPPRLPRPRPRPNIGPRP here?
**A.** -0.0132

**Q.** RRIRCRPPRLPRPRPRPASYPRP was tested. Which “shrunken log2 fold change” value did it give?
**A.** -0.295

**Q.** With RRIRDRPPRLPRPRPRPDYIPRP as the sequence, how does the “shrunken log2 fold change” value read?
**A.** 0.0998

**Q.** With RRIRDRPPRLPRPRPRPEDGPRP as the sequence, how does the “shrunken log2 fold change” value read?
**A.** 0.316

**Q.** For RRIRKRPPRLPRPRPRPYPHPRP, which “shrunken log2 fold change” value is on record?
**A.** -0.207

**Q.** Which “shrunken log2 fold change” value does the source give for RRIRARPPRLPRPRPRPLKYPRP here?
**A.** -0.11

**Q.** With RRIRGRPPRLPRPRPRPTPSPRP as the sequence, how does the “shrunken log2 fold change” value read?
**A.** 0.954

**Q.** Which “shrunken log2 fold change” value does the source give for RRIRFRPPRLPRPRPRPIWFPRP here?
**A.** -0.129

**Q.** How did the “shrunken log2 fold change” value turn out when RRIRNRPPRLPRPRPRPHSAPRP was run?
**A.** -0.0468

**Q.** For RRIRDRPPRLPRPRPRPEHSPRP, which “shrunken log2 fold change” value is on record?
**A.** -0.027

**Q.** RRIRYRPPRLPRPRPRPFIEPRP was tested. Which “shrunken log2 fold change” value did it give?
**A.** -1.2

**Q.** For RRIRMRPPRLPRPRPRPRHSPRP, which “shrunken log2 fold change” value is on record?
**A.** 0.0596

**Q.** Which “shrunken log2 fold change” value does the source give for RRIRIRPPRLPRPRPRPHYQPRP here?
**A.** -0.463

**Q.** Which “shrunken log2 fold change” value does the source give for RRIRMRPPRLPRPRPRPYEIPRP here?
**A.** 0.0237

**Q.** With RRIRYRPPRLPRPRPRPSVKPRP as the sequence, how does the “shrunken log2 fold change” value read?
**A.** -0.119

**Q.** How did the “shrunken log2 fold change” value turn out when RRIRERPPRLPRPRPRPSTGPRP was run?
**A.** -0.467

**Q.** Which “shrunken log2 fold change” value does the source give for RRIRVRPPRLPRPRPRPSSCPRP here?
**A.** -0.184

**Q.** For RRIRYRPPRLPRPRPRPEYKPRP, which “shrunken log2 fold change” value is on record?
**A.** -0.856

**Q.** Which “shrunken log2 fold change” value does the source give for RRIRVRPPRLPRPRPRPTMGPRP here?
**A.** 0.04

**Q.** For RRIRFRPPRLPRPRPRPLYVPRP, which “shrunken log2 fold change” value is on record?
**A.** -0.631

**Q.** With RRIRHRPPRLPRPRPRPNAWPRP as the sequence, how does the “shrunken log2 fold change” value read?
**A.** 0.341

**Q.** How did the “shrunken log2 fold change” value turn out when RRIRMRPPRLPRPRPRPCNFPRP was run?
**A.** -0.415

**Q.** How did the “shrunken log2 fold change” value turn out when RRIRSRPPRLPRPRPRPLFAPRP was run?
**A.** 0.0687

**Q.** For RRIRQRPPRLPRPRPRPDKYPRP, which “shrunken log2 fold change” value is on record?
**A.** -0.0227

**Q.** With RRIRERPPRLPRPRPRPAVKPRP as the sequence, how does the “shrunken log2 fold change” value read?
**A.** -0.0221

**Q.** How did the “shrunken log2 fold change” value turn out when RRIRTRPPRLPRPRPRPCTQPRP was run?
**A.** -0.123

**Q.** For RRIRQRPPRLPRPRPRPNTWPRP, which “shrunken log2 fold change” value is on record?
**A.** -0.191

**Q.** For RRIRVRPPRLPRPRPRPHPRPRP, which “shrunken log2 fold change” value is on record?
**A.** 0.555

**Q.** RRIRKRPPRLPRPRPRPIGRPRP was tested. Which “shrunken log2 fold change” value did it give?
**A.** 0.015

**Q.** For RRIRERPPRLPRPRPRPHVSPRP, which “shrunken log2 fold change” value is on record?
**A.** -0.0346

**Q.** With RRIRARPPRLPRPRPRPHSHPRP as the sequence, how does the “shrunken log2 fold change” value read?
**A.** 0.144

**Q.** Which “shrunken log2 fold change” value does the source give for RRIRKRPPRLPRPRPRPWTIPRP here?
**A.** 0.0185

**Q.** With RRIRRRPPRLPRPRPRPYPEPRP as the sequence, how does the “shrunken log2 fold change” value read?
**A.** 0.00427

**Q.** How did the “shrunken log2 fold change” value turn out when RRIRVRPPRLPRPRPRPTYEPRP was run?
**A.** -0.152

**Q.** With RRIRYRPPRLPRPRPRPRRYPRP as the sequence, how does the “shrunken log2 fold change” value read?
**A.** -0.492

**Q.** How did the “shrunken log2 fold change” value turn out when RRIRGRPPRLPRPRPRPAMDPRP was run?
**A.** 0.491

**Q.** Which “shrunken log2 fold change” value does the source give for RRIRSRPPRLPRPRPRPPFQPRP here?
**A.** 0.073

**Q.** How did the “shrunken log2 fold change” value turn out when RRIRHRPPRLPRPRPRPVLLPRP was run?
**A.** -0.0673

**Q.** With RRIRPRPPRLPRPRPRPPCVPRP as the sequence, how does the “shrunken log2 fold change” value read?
**A.** 0.128

**Q.** Which “shrunken log2 fold change” value does the source give for RRIRCRPPRLPRPRPRPQFHPRP here?
**A.** -0.635

**Q.** Which “shrunken log2 fold change” value does the source give for RRIRIRPPRLPRPRPRPADGPRP here?
**A.** 0.276

**Q.** RRIRDRPPRLPRPRPRPCGLPRP was tested. Which “shrunken log2 fold change” value did it give?
**A.** 0.371

**Q.** For RRIRTRPPRLPRPRPRPCVFPRP, which “shrunken log2 fold change” value is on record?
**A.** -0.215

**Q.** For RRIRMRPPRLPRPRPRPQWPPRP, which “shrunken log2 fold change” value is on record?
**A.** -0.132

**Q.** With RRIRFRPPRLPRPRPRPNQEPRP as the sequence, how does the “shrunken log2 fold change” value read?
**A.** 0.229

**Q.** With RRIRERPPRLPRPRPRPTIPPRP as the sequence, how does the “shrunken log2 fold change” value read?
**A.** -0.475

**Q.** With RRIRYRPPRLPRPRPRPCGAPRP as the sequence, how does the “shrunken log2 fold change” value read?
**A.** -0.324

**Q.** Which “shrunken log2 fold change” value does the source give for RRIRVRPPRLPRPRPRPGVTPRP here?
**A.** 0.0341

**Q.** How did the “shrunken log2 fold change” value turn out when RRIRGRPPRLPRPRPRPKEMPRP was run?
**A.** 0.5

**Q.** How did the “shrunken log2 fold change” value turn out when RRIRERPPRLPRPRPRPMLVPRP was run?
**A.** -0.225

**Q.** For RRIRVRPPRLPRPRPRPENCPRP, which “shrunken log2 fold change” value is on record?
**A.** -0.0723

**Q.** For RRIRTRPPRLPRPRPRPMTWPRP, which “shrunken log2 fold change” value is on record?
**A.** 0.0637

**Q.** Which “shrunken log2 fold change” value does the source give for RRIRMRPPRLPRPRPRPWEKPRP here?
**A.** 0.217

**Q.** For RRIRDRPPRLPRPRPRPPGYPRP, which “shrunken log2 fold change” value is on record?
**A.** 0.0954

**Q.** For RRIRIRPPRLPRPRPRPIWSPRP, which “shrunken log2 fold change” value is on record?
**A.** 0.025

**Q.** RRIRFRPPRLPRPRPRPRCMPRP was tested. Which “shrunken log2 fold change” value did it give?
**A.** -0.124

**Q.** For RRIRCRPPRLPRPRPRPVGAPRP, which “shrunken log2 fold change” value is on record?
**A.** 0.622

**Q.** Which “shrunken log2 fold change” value does the source give for RRIRIRPPRLPRPRPRPCEDPRP here?
**A.** -0.424

**Q.** With RRIRLRPPRLPRPRPRPIIDPRP as the sequence, how does the “shrunken log2 fold change” value read?
**A.** -0.256

**Q.** How did the “shrunken log2 fold change” value turn out when RRIRPRPPRLPRPRPRPYETPRP was run?
**A.** -0.106

**Q.** For RRIRIRPPRLPRPRPRPMPFPRP, which “shrunken log2 fold change” value is on record?
**A.** 0.0123

**Q.** With RRIRCRPPRLPRPRPRPINIPRP as the sequence, how does the “shrunken log2 fold change” value read?
**A.** -0.702

**Q.** With RRIRARPPRLPRPRPRPHGTPRP as the sequence, how does the “shrunken log2 fold change” value read?
**A.** -0.0246

**Q.** RRIRGRPPRLPRPRPRPHVKPRP was tested. Which “shrunken log2 fold change” value did it give?
**A.** -0.0605

**Q.** For RRIRFRPPRLPRPRPRPCCKPRP, which “shrunken log2 fold change” value is on record?
**A.** -0.00992

**Q.** RRIRNRPPRLPRPRPRPNAIPRP was tested. Which “shrunken log2 fold change” value did it give?
**A.** -0.0211

**Q.** For RRIRLRPPRLPRPRPRPSPFPRP, which “shrunken log2 fold change” value is on record?
**A.** -0.183

**Q.** For RRIRCRPPRLPRPRPRPYKCPRP, which “shrunken log2 fold change” value is on record?
**A.** -0.273

**Q.** RRIRMRPPRLPRPRPRPQQRPRP was tested. Which “shrunken log2 fold change” value did it give?
**A.** 0.586

**Q.** RRIRHRPPRLPRPRPRPPNCPRP was tested. Which “shrunken log2 fold change” value did it give?
**A.** -0.19
